Our source for the self-cleavage values is the RNAGym collection of RNA variant scans (doi:10.7554/elife.80360).

The labels stand for the following.
B1: Twister Ribozyme (parent)
chain: AACACUGCCAAUGCCGGUCCCAAGCCCGGAUAAAAGUGGAGGGGGCGG

Variants of B1 are the subject of the data set. The data set is described as follows: self-cleavage, relative activity (ratio to wild type); higher = more cleavage; co-transcriptional.
Consider G36C G41C, for which the self-cleavage is 0.141.
Then C3G G48A, with 0.405; and C3A U12C, with 0.425.
As for C19G G42C, the figure is 0.139; as for A1G A30C, 0.198; as for C9G A30U, 0.62.
For C8U C26G, the self-cleavage was 0.0721.
As for G36U G45A, the figure is 0.4.
As for A40G G42C, the figure is 0.215.
As for A34C A35U, the figure is 0.811; as for U12C A32G, 1.24.
As to U12A G43A, the self-cleavage was 0.298.
For A40C G45U, the self-cleavage is 0.171.
Then A11G G36A, with 0.458; and U12G C25G, with 0.486; and C14A G28A, with 0.818.
As for C14A G28C, the figure is 0.757; as for C14U A40G, 0.21; as for G7U G39A, 0.0425.
As to A11U G38A, the self-cleavage is 1.16.
Then U31C A34U, with 0.739.
Turning to G13A U18C, the self-cleavage is 0.129.
Then C9U G48U, with 0.646; and G13C C15U, with 0.0748.
Then A4C G48A, with 0.134; and C8G G29A, with 0.3; and A4C C26A, with 0.0425.
As for G36A C46A, the figure is 0.582; as for C9A G39A, 0.167.
For the variant C9U G39C, the self-cleavage was 0.151.
As for C14A G41U, the figure is 0.55.
On to C26A A30G, for which the self-cleavage came out at 0.348.
As for C26A C46A, the figure is 0.338.
Then U18C A35G, with 0.139; and C26G C46A, with 0.153.
Take C3U A4G: the self-cleavage was determined as 0.183.
U6C C15U: the self-cleavage came out at 0.354.
As for A2C A32G, the figure is 0.0723; as for C27A U31G, 0.629; as for U18G G48A, 0.0606.
Then G36C G47C, with 0.171; and G36A G38C, with 0.327.
As for C8U C46U, the figure is 0.726; as for A4C C9U, 0.0772.
As for C9U U12G, the self-cleavage was 0.501.
As to C9G G36U, the self-cleavage worked out at 0.137.
Then U12G G29C, with 0.677.
Then C19G G43C, with 0.711; and A4U G43A, with 0.0748.
Then A10G A40G, with 0.185.
With A4C C25G, the self-cleavage worked out at 0.0395.
As for A2G G24U, the figure is 0.0773.
Then A35G U37C, with 0.056; and U18G A40G, with 0.0494; and C25U C26G, with 0.131.
Then C5A G24U, with 0.0619; and G24C G48U, with 0.0846; and C46U G47A, with 0.874.
C15A G36A: the self-cleavage came to 0.165.
Then A22G G44U, with 0.243; and C14A G29U, with 0.903.
As for C5A G48C, the figure is 0.53.
As for C21G A32U, the figure is 0.196.
Consider U6A C20G, for which the self-cleavage turned out to be 0.0822.
Then G16U A22U, with 0.759; and G24C G45A, with 0.0924; and G24C G45C, with 0.0828.
As for C5A C26U, the figure is 0.0777; as for C14G G28C, 0.106; as for A33G G39U, 0.222.
Then C3U G29U, with 0.464; and C21A G42A, with 0.0769.
Regarding A10G C20G, the self-cleavage worked out at 0.183.
Then G13C G36U, with 0.0844.
As for A10G G16C, the self-cleavage is 0.567.
Then C14A G16U, with 0.394; and C21U G44U, with 0.0882; and A22C G47A, with 0.909.
As for A4G G13C, the figure is 0.244; as for C9A G44A, 0.664.
As for C20U U31A, the figure is 0.68; as for A10U G17A, 0.532; as for A2U U12C, 0.732.
On to A32G G48A, for which the self-cleavage came out at 0.925.
Then A32G G48C, with 0.976; and G24A A32C, with 0.0703; and A4G U6C, with 0.104.
As for A1U G39U, the figure is 0.0746; as for A30U G38U, 0.957.
As for C8A A35C, the figure is 0.405.
As for C14G G36U, the self-cleavage worked out at 0.0782.
Then A34G G36A, with 0.164; and A11C G29U, with 0.681.
As for C14G C26U, the figure is 0.0493; as for C3U G47C, 0.233; as for A34C A40G, 0.145.
As for G42A G48U, the figure is 0.397; as for A30G A35U, 0.782.
Consider A10G C27U, for which the self-cleavage is 1.01.
Then G7U G29A, with 0.0635; and C8G A32G, with 0.275; and A11U A32C, with 0.926.
As for C25U G47C, the figure is 0.248; as for C5G G7C, 0.0519; as for A35C C46G, 0.828.
Then C15U G38C, with 0.801; and G41C G47U, with 0.149; and C19A A35C, with 0.313.
On to C26A G36A, for which the self-cleavage came out at 0.0875.
As for C9G C27U, the self-cleavage was found to be 0.326.
On to U6G A23U, for which the self-cleavage worked out at 0.0909.
Then A22U G36U, with 0.074.
Then C3G C9U, with 0.191.
Then A2U C20U, with 0.3.
Consider G28C G36U, for which the self-cleavage was found to be 0.101.
For C8U U12A, the self-cleavage was 0.825.
As for G41C C46A, the figure is 0.254; as for C20U U37G, 0.702.
As for G41U C46U, the figure is 0.68; as for C19G G38U, 0.0929.
As for C15U G29C, the figure is 0.194; as for G38C C46G, 0.801; as for A10G G24C, 0.131.
For G29C G44C, the self-cleavage was found to be 0.696.
As for C21G C46A, the figure is 0.115; as for G7A G38A, 0.0994; as for G38U G48C, 1.05.
Regarding A11U C14U, the self-cleavage is 1.13.
Turning to U18A G41U, the self-cleavage is 0.125.
Then A40U G48C, with 0.209.
Then G7U C25A, with 0.224; and C20U A33U, with 0.778; and A11G A35C, with 0.903.
As for G24C A35C, the figure is 0.0752; as for A22C G39C, 0.161.
As to G29A G42C, the self-cleavage is 0.46.
In the case of G13U C21U, the self-cleavage came to 0.0908.
Then A32U C46A, with 0.873; and U6A U18A, with 0.174; and A30U G43U, with 0.558.
A11C G13A: the self-cleavage turned out to be 0.188.
Then A11U C21U, with 0.0941; and U18A A22G, with 0.0469; and C5U G42U, with 0.134.
In the case of G7C C27U, the self-cleavage is 0.0315.
Then C27G A35C, with 0.104; and C9A A34G, with 0.501.
As for C27U G28A, the figure is 0.478; as for A1C U12G, 0.143; as for U18G A32U, 0.0793.
As for C25U G41U, the figure is 0.198.
Consider C14U U18A, for which the self-cleavage amounted to 0.635.
Then C8A G47U, with 0.156; and G29C G45C, with 0.211; and C46G G47A, with 0.818.
As for G36C C46U, the figure is 0.585.
As for G16A G48C, the figure is 1.08; as for U31C U37C, 0.587.
C15G G48A: the self-cleavage came to 0.0877.
As for A4C G43C, the figure is 0.0981; as for C3U U31C, 0.391.
On to C19G G29A, for which the self-cleavage stood at 0.258.
As for C9G C21G, the figure is 0.115; as for G7A G45U, 0.177.
Then U18C U31C, with 0.569; and G38U G45A, with 0.827.
As for G43A G44C, the self-cleavage amounted to 0.465.
